“Also recorded” adds a separate entry of the source. Blank lines part the entries; values can stand above or below the molecule they belong to.
Assays:
[1] = test system: SW-480 (colorectal cancer) cells; assay: SW-480 colorectal cancer xenograft in nu/nu mice; type: in vivo, mouse; details: average per group
Protocol: Mice (nu/nu) were implanted subcutaneously with 5×10^6 SW-480 (colorectal cancer) cells. After 12 days, when tumors reached approximately 100-200 mg, the mice were separated into 5 groups and treated with the following agents (or left untreated): • 1—Untreated • 2—Vehicle (PBS) • 3—Cisplatin (4 mg/kg/, IV, q2d×5 times) • 4—A2-SV (negative control antibody @ 10 mg/kg, IP, q2d×14 times) • 5—DX-2220 (anti-Tie-1 antibody @ 10 mg/kg, IP, q2d×14 times)
Throughout the study, the length (L) and width (W) of any tumors that developed were measured in millimeters using calibrated vernier calipers, where L is the longer of the two dimensions. When applicable, tumor weight (M) in milligrams was calculated by using the formula associated with a prolate ellipsoid: M=(L×W^2)/2. […] A2-SV is an isotype matched (IgG1) negative control antibody that binds strepavidin.

[2] = target: T1, Tie1-EpoR chimeric receptor (UniProt P14753+P35590); assay: Ba/F3 bioassay (Tie1/EpoR chimeric BaF3 cell assay), MTT viability; type: cell-based, human; details: 100 ng/ml E3 IgG together with 100 (1:1) or 500 (1:5) ng/ml of the other antibody
T1 construct: the PCR amplified extracellular part of human Tie1 (bp 37-2316 of X60975); expressed in transfected cells
T1 sequence (P35590+P14753 with tags, fused parts or gaps): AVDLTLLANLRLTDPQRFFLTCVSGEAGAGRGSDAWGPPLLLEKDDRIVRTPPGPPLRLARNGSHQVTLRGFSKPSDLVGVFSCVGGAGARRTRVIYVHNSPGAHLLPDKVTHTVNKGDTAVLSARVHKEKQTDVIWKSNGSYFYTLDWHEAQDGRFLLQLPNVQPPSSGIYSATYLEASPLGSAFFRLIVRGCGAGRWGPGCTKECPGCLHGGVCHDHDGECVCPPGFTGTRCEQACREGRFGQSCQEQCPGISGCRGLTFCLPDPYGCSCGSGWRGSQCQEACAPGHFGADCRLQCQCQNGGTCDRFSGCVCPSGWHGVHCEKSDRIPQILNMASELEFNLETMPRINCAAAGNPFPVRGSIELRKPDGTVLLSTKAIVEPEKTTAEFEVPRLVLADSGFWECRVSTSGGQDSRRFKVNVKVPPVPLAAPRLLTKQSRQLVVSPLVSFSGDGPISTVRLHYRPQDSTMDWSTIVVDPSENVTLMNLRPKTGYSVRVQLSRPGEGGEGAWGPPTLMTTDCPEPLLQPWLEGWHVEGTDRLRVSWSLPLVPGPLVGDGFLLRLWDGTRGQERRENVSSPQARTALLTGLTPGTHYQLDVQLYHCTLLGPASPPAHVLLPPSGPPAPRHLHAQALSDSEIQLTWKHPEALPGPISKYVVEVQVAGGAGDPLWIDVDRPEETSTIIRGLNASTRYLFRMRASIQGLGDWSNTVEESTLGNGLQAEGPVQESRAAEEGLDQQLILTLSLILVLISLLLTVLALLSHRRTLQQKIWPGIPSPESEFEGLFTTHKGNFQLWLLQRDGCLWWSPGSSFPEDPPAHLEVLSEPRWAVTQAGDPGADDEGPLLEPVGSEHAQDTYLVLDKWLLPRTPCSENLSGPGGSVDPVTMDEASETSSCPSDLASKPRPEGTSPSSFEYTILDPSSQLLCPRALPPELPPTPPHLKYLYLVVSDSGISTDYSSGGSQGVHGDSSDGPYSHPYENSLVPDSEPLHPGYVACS
Description: To generate Tie1-EpoR expressing Ba/F3 cells for the bioassay, Ba/F3 pre-B cells were stably transfected with a nucleic acid that expresses chimeric receptor containing the extracellular domain of human Tie1 fused with the transmembrane and cytoplasmic domains of the mouse erythropoietin receptor. The nucleic acid used was a Tie1-EpoR chimeric cDNA in a pEF-BOS expression vector. The nucleic acid encoding the chimeric receptor was constructed by cloning the PCR amplified extracellular part of human Tie1 (bp 37-2316 of X60975) as EcoRI-BglII fragment into mEpoR-pcDNA vector. The cDNA encoding for the chimeric receptor consisting of the extracellular part of Tie1 fused with the transmembrane and intracellular domains of EpoR was subcloned into the pEF-BOS expression vector. Vector was linearized and co-transfected into Ba/F3 cells with pcDNA3.1(+) Zeo vector (Invitrogen). Stable cell pools were generated by selection with 250 μg/ml Zeocin. The expression of Tie1/EpoR fusion protein in several clones was analyzed by Western blotting with an antibody against EpoR.
To perform the assays, Ba/F3 cells expressing the Tie 1-EpoR chimera were split in 96-well microtiter plates at 50 000 cells/well in the presence of the indicated concentrations of anti-Tie1 antibodies. As controls, Zeocin resistant pools not expressing the Tie1-EpoR were used. After 48 h, the viability of the cells was determined by adding MTT (3-(4,5-dimethylthiazol-2-yl)-2,5-diphenyl tetrazolium bromide (Sigma), 0.5 mg/ml), followed by further 2 h of culture, addition of an equal volume of cell lysis solution (10% SDS, 10 mM HCl) and incubation overnight at 37° C. Absorbance was measured at 540 nm.
Although no ligand for Tie1 has been identified, we used the following efficient screening method for Tie1-binding proteins. Interleukin-3 dependent pre-B-lymphocyte (Ba/F3) cells were transfected with a construct that expresses a Tie1-EpoR fusion protein. Since Ba/F3 cells are IL-3 dependent, they die unless IL-3 is provided. However, Tie-EpoR receptor expressing Ba/F3 cells can survive and proliferate if the medium contains a Tie1-binding protein, either a natural ligand or an artificial mimetic. Cell survival can be quantitated, e.g., by colorimetric MTT-assay, which measures mitochondrial activity.

Tie1 = Tie1 (Homo sapiens, UniProt P35590); assay: Immunohistochemistry of matched human tumor and normal tissue sections; parameters: from tissue; host or cells: fresh frozen normal and tumor tissue (e.g. lung, kidney, skin, breast); details: 10 μg/ml, fresh frozen tissue
Protocol: The Tie-1 antibodies were biotinylated using the EZ-link Sulfo-NHS-SS-Biotin (Pierce, Cat. 21331). For Tie-1/Fc and Tie-1-His, the reaction was performed for 2 hours on ice in 50 mM sodium carbonate buffer, pH 9.6, in the presence of a 5-fold molar excess of biotinylating agent. For the antibodies, the reaction was performed for 2 hours on ice in PBS, in the presence of a 15-fold molar excess of EZ-link Sulfo-NHS-SS-Biotin. The reaction was stopped by the addition of Tris-HCl, pH 7.5 (50 mM final concentration) followed by a 1-hour incubation on ice. Samples were then dialyzed against PBS.
Various normal and tumor tissue sections were stained with biotinylated antibodies. A mouse monoclonal anti-Tie1 antibody (7e8) (Alitalo laboratory, University of Helsinki) was used as a positive control. Sections without primary antibody served as negative control. All samples were fresh frozen tissues and staining was performed with the TSA-kit (Perkin-Elmer Life Sciences). After acetone fixation (10-20 min, −20° C.) the slides were treated with 0.73% H2O2 for 10 min to reduce endogenous peroxidase activity followed by blocking for 30 min with TNB buffer. Sections ([…] thick) were incubated with primary antibodies (10 μg/ml) overnight at 4° C. Sections with the mouse monoclonal anti-tie1 antibody (7e8) were treated with biotinylated anti-mouse antibodies (VectaStain) before the addition of streptavidin-HRP. Signal was amplified by using a TSA kit and the visualized by AEC (235 ml NaAc, 15 ml AEC (stock solution: 1600 mg 3-amino-9-ethyl-carbazole and 480 ml N-dimethylformamide), 250 μl H2O2).

[3] = test system: bFGF-induced angiogenesis; assay: […] plug assay, bFGF-induced angiogenesis in NMRI nu/nu mice; type: in vivo, mouse; details: first assay, day 7; bFGF 80 ng/ml; antibody 10 μg/ml in plug; E3 = germlined variant, IgG4
Protocol: The germlined variant of the E3 IgG antibody was evaluated in an in vivo assay for angiogenesis induced by bFGF in […]™ plugs. Growth factor reduced […]™ (BD Biosciences, catalog # 354230) was supplemented with 80 ng/ml of bFGF (R&D Systems, catalog #234-FSE). The A2-SV or an IgG4 E3 antibody (10 μg/ml) or PBS was injected subcutaneously into the abdominal area of NMRI nu/nu mice (150 μl of Matrigel/plug).
In the first assay, two mice were injected with […]™ supplemented with bFGF and soluble VEGFR-1 (10 μg/ml) as a positive control for an angiogenic inhibitor. At day 7 post-implantation mice were anesthetized and perfused through heart with 4% paraformaldehyde (PFA) in phosphate buffered saline (PBS). […]™ plugs and a piece of liver were removed and embedded in paraffin. Sections were cut and stained with hematoxylin and eosin (H&E).
In a second assay, mice were treated as described above, and then anesthetized eight days post-implantation and injected with fluorescein-conjugated tomato (lycopersicon esculentum) lectin (100 μg in 200 μl of PBS; Vector, catalog #FL-1171) into the tail vein. After five min circulation the animals were perfused through the heart with 10 ml of PBS followed by 10 ml of 4% PFA in PBS. […]™ plugs and pieces of kidney and liver were removed and frozen in OCT (Tissue-Tek). Nuclei were visualized on sections by using […]® mounting medium containing DAPI (Vector) and analyzed under fluorescence microscopy.

Sequence of Tie1 (P35590 22-1138): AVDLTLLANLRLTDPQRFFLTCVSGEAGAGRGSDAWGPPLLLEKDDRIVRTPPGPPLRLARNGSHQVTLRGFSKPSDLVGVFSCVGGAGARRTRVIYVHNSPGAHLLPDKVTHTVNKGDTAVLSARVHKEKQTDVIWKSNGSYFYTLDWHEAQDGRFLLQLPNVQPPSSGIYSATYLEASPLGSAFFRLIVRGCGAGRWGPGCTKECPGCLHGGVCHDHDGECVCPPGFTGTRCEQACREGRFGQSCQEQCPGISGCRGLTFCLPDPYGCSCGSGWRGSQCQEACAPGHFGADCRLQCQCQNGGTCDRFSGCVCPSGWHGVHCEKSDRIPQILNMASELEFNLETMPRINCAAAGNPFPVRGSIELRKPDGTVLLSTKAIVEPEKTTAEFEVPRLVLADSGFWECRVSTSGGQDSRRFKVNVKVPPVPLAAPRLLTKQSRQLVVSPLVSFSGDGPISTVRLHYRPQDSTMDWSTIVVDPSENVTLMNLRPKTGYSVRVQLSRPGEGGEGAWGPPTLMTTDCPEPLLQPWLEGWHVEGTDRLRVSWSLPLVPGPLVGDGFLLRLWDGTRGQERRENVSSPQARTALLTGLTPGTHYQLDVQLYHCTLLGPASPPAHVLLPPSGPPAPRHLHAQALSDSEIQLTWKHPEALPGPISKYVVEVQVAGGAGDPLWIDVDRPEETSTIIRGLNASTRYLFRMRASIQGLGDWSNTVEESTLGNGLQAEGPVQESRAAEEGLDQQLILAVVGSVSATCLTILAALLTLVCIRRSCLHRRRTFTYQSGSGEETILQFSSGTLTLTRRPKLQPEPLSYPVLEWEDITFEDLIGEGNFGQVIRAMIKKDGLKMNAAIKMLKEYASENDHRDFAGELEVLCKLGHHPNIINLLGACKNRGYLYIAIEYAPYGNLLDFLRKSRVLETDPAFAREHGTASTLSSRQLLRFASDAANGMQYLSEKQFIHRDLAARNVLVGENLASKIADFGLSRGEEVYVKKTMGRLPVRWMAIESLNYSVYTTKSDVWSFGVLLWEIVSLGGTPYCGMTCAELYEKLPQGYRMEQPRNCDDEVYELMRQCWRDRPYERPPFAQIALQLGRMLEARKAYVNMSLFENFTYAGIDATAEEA

Molecule: N.N.[Cl][Pt][Cl] [cisplatin, reference compound]
- Tumor Weight ([1]; 5 days after cell injection (before treatment start at day 12)): 48 mg
- Tumor Weight ([1]; 9 days after cell injection (before treatment start at day 12)): 69 mg
- Tumor Weight ([1]; 12 days after cell injection (treatment start)): 137 mg
- Tumor Weight ([1]; 15 days after cell injection): 185 mg
- Tumor Weight ([1]; 19 days after cell injection): 207 mg
- Tumor Weight ([1]; 22 days after cell injection): 235 mg
- Tumor Weight ([1]; 26 days after cell injection): 310 mg
- Tumor Weight ([1]; 28 days after cell injection): 363 mg

- staining of lung carcinoma (Tie1): stained structures other than vessels
- staining of normal lung (large veins) (Tie1): faint staining
- staining of normal skin (Tie1): stained blood vessels very faintly
- staining of veins and capillaries of mammary tissue (breast) (Tie1): stained those structures rather faintly
B1: D11: anti-Tie1 antibody; VH SEQ ID NO:84, VL SEQ ID NO:86 (antibody, V domains shown)
VH: EVQLLESGGGLVQPGGSLRLSCAASGFTFSGYAMWWVRQAPGKGLEWVSSISPSGGATAYADSVKGRFTISRDNSKNTLYLQMNSLRAEDTAVYYCARDAGSYYWGWFDPWGQGTLVTVSSASTKGPSVFP
VL: HSAQDIQMTQSPATLSLSPGERATLSCRASQSISSYLAWYQQKPGQPPRLLIYDASSRVTGIPARFSGSGFGTDFTLTISSLEPEDFAVYYCLQRSSWPRTFGQGTKLEIK
modifications: Synthetically generated peptide
- effect on the survival effect of E3 IgG in Tie1-EpoR Ba/F3 assay [2]: completely blocked the viability; also recorded: blocked completely the survival effect of E3 IgG; also recorded: counteract the agonistic activity of E3
- staining of breast carcinoma (Tie1): stained also other structures in addition to vessels
- staining of kidney (Tie1): stained kidney tubules in addition to the vessels
- staining of melanoma tissue (Tie1): also stained other surrounding structures

B2: soluble VEGFR1: soluble VEGFR-1 (10 μg/ml), positive control for an angiogenic inhibitor (protein, UniProt P17948 27-758, looked up)
extracellular domain: SKLKDPELSLKGTQHIMQAGQTLHLQCRGEAAHKWSLPEMVSKESERLSITKSACGRNGKQFCSTLTLNTAQANHTGFYSCKYLAVPTSKKKETESAIYIFISDTGRPFVEMYSEIPEIIHMTEGRELVIPCRVTSPNITVTLKKFPLDTLIPDGKRIIWDSRKGFIISNATYKEIGLLTCEATVNGHLYKTNYLTHRQTNTIIDVQISTPRPVKLLRGHTLVLNCTATTPLNTRVQMTWSYPDEKNKRASVRRRIDQSNSHANIFYSVLTIDKMQNKDKGLYTCRVRSGPSFKSVNTSVHIYDKAFITVKHRKQQVLETVAGKRSYRLSMKVKAFPSPEVVWLKDGLPATEKSARYLTRGYSLIIKDVTEEDAGNYTILLSIKQSNVFKNLTATLIVNVKPQIYEKAVSSFPDPALYPLGSRQILTCTAYGIPQPTIKWFWHPCNHNHSEARCDFCSNNEESFILDADSNMGNRIESITQRMAIIEGKNKMASTLVVADSRISGIYICIASNKVGTVGRNISFYITDVPNGFHVNLEKMPTEGEDLKLSCTVNKFLYRDVTWILLRTVNNRTMHYSISKQKMAITKEHSITLNLTIMNVSLQDSGTYACRARNVYTGEEILQKKEITIRDQEAPYLLRNLSDHTVAISSSTTLDCHANGVPEPQITWFKNNHKIQQEPGIILGPGSSTLFIERVTEEDEGVYHCKATNQKGSVESSAYLTVQGTSDKSNLE
modifications: extracellular domain
- vessel-like structures in MATRIGEL plugs (H&E staining) [3]: neither modification of the matrix nor organization of the cells

Source: US7871610B2, “Antibodies to Tie1 ectodomain” (Dyax Corp., priority 2003, dated 2011)
